Source: patent publication US20240199757A1 (UNIVERSITY OF CHICAGO, published 2024)

Biological target: T1, human NT5E expressed on MDA-MB-231 cells (human, UniProt P21589 27-549)
T1 construct: whole, on cells; also called NT5E-expressing MDA-MB-231 cells; CD73
T1 sequence (looked up): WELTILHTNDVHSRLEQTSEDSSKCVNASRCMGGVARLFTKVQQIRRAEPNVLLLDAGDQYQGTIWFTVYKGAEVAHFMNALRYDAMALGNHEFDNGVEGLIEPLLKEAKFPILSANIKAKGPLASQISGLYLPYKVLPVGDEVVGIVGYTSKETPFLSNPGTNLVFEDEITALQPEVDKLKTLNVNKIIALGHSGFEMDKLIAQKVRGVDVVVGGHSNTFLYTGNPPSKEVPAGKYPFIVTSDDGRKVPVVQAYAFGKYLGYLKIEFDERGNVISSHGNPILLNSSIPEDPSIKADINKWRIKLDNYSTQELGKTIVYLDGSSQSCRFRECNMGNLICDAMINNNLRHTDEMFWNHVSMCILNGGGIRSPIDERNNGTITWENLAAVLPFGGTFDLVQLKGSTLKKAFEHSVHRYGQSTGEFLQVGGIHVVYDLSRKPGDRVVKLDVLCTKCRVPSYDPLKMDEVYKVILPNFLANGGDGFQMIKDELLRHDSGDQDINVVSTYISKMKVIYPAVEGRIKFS
Assay: flow cytometry on MDA-MB-231 cells, 1 mM ATP
Experimental: Flow cytometry analysis of antibodies binding to human NT5E expressed on MDA-MB-231 cells in ATP-free condition (black) or in 1 mM ATP (red). Top panel: (left) 1780 Fab and (right) 1780 IgG titrations. […] Binding was measured at the indicated range of antibody concentrations and is expressed as mean±st. dev of median fluorescence intensity (MFI) of 1-2 replicates. Data were analyzed using OriginLab, and EC₅₀ values are shown next to the fitted curves.
Human MDA-MB-231 cells and murine 4T1 cells were grown to 90% confluency, detached with 5 mM EDTA for 15 min at 37° C. and then resuspended in 37° C. lx PBS (#10010031, Gibco) supplemented with 1% FBS and 1OpM ZnCl2. Separate working buffers (WB) of PBS and 1% FBS with or without fixed nucleotide concentrations were used throughout all washing steps to maintain constant condition. In 96-well plates (#3799, Costar), 0.2×10⁶ cells were added per well. The plates were spun at 500×g for 5 min and the supernatant was removed. Anti-NT5E antibodies were diluted to the desired concentration in 100 μL WB, added to the cells and the plates were incubated for 20 min at 37° C. Plates were spun and cells were washed twice with WB then spun a second time. Cells were stained with 100 μL of secondary antibody (Alexa Fluor 647 AffiniPure Goat Anti-Human IgG, F(ab′)2 fragment specific, #109-605-006, Jackson, 1:200) dilution and plates were incubated for 20 min at 37° C. Cells were washed twice with WB then fixed on ice with WB supplemented with 0.5% PFA. Fixing solution was removed by centrifugation and cells were resuspended in cold 1× PBS. Samples were analyzed by flow cytometry using CytoFLEX (Beckman Coulter) and mean fluorescence intensity (MFI) data was extracted using FlowJo software. Resulting binding data was plotted using OriginLab.

B1: 1789 Fab (Fab, V domains shown)
VH: EVQLVESGGGLVQPGGSLRLSCAASGFNVSYSSIHWVRQAPGKGLEWVASISSSSGYTYYADSVKGRFTISADTSKNTAYLQMNSLRAEDTAVYYCARNYWGWYPFYYFAFDYWGQGTLVTV
VL: DIQMTQSPSSLSASVGDRVTITCRASQSVSSAVAWYQQKPGKAPKLLIYSASSLYSGVPSRFSGSRSGTDFTLTISSLQPEDFATYYCQQGWDYPITFGQGTKVEIKR
For B1, the EC50 was 52 nM.
